Measured values reported in article PMC10266731 (Science Advances, 2023).
Where two headings read alike, the source gives them in different places.

What was measured:
[1] = system: propionyl-CoA synthetase (Pcs)
[2] = substrate: N[C@@H](CCC(=O)O)C(=O)O; assay: malonic semialdehyde made by McrC; assay type: biochemical, Escherichia coli; settings: malonic semialdehyde co-substrate, NH4Cl
[3] = substrate: O=CCC(=O)O; assay: malonic semialdehyde made by McrC; assay type: biochemical, Escherichia coli; settings: L-glutamate co-substrate, NH4Cl
purified protein [4] = substrate: CC(C)(COP(=O)(O)OP(=O)(O)OC[C@H]1O[C@@H](n2cnc3c(N)ncnc32)[C@H](O)[C@@H]1OP(=O)(O)O)[C@@H](O)C(=O)NCCC(=O)NCCSC(=O)/C=C/C(=O)O; assay: purified protein
purified protein [5] = substrate: NC(=O)C1=CN([C@@H]2O[C@H](COP(=O)(O)OP(=O)(O)OC[C@H]3O[C@@H](n4cnc5c(N)ncnc54)[C@H](OP(=O)(O)O)[C@@H]3O)[C@@H](O)[C@H]2O)C=CC1; assay: purified protein; settings: acrylyl-CoA co-substrate; varied: cofactor
purified protein [6] = substrate: C=CC(=O)SCCNC(=O)CCNC(=O)[C@H](O)C(C)(C)COP(=O)(O)OP(=O)(O)OC[C@H]1O[C@@H](n2cnc3c(N)ncnc32)[C@H](O)[C@@H]1OP(=O)(O)O; assay: purified protein; settings: NADPH co-substrate
purified protein [7] = substrate: CC(C)(COP(=O)(O)OP(=O)(O)OC[C@H]1O[C@@H](n2cnc3c(N)ncnc32)[C@H](O)[C@@H]1OP(=O)(O)O)[C@@H](O)C(=O)NCCC(=O)NCCSC(=O)CCN; assay: purified protein; settings: NADPH, NaHCO3, excess Ccr
purified protein [8] = substrate: CC(C)(COP(=O)(O)OP(=O)(O)OC[C@H]1O[C@@H](n2cnc3c(N)ncnc32)[C@H](O)[C@@H]1OP(=O)(O)O)[C@@H](O)C(=O)NCCC(=O)NCCSC(=O)CC(=O)O; assay: purified protein; settings: NADPH co-substrate; full-length Mcr assumed (McrC also made)
purified protein [9] = substrate: CC(C)(COP(=O)(O)OP(=O)(O)OC[C@H]1O[C@@H](n2cnc3c(N)ncnc32)[C@H](O)[C@@H]1OP(=O)(O)O)[C@@H](O)C(=O)NCCC(=O)NCCSC(=O)CCC(=O)O; assay: purified protein
purified protein [10] = substrate: O=C(O)C[C@H](O)C(=O)O; assay: purified protein; settings: succinyl-CoA co-substrate

How did the Km ([1]; read-out: app. Km, ATP, NADPH co-substrates) turn out when `O=C(O)CCO` [3-hydroxypropionate] was run?
The Km was 85 µM.

How did the Km ([1]; read-out: app. Km, 3-hydroxypropionate, NADPH co-substrates) turn out when `Nc1ncnc2c1ncn2[C@@H]1O[C@H](COP(=O)(O)OP(=O)(O)OP(=O)(O)O)[C@@H](O)[C@H]1O` [ATP] was run?
Its Km is 10 µM.

B1: 4-aminobutyrate-2-oxoglutarate transaminase (GabT) (Escherichia coli K-12) (protein)
chain: MNSNKELMQRRSQAIPRGVGQIHPIFADRAENCRVWDVEGREYLDFAGGIAVLNTGHLHPKVVAAVEAQLKKLSHTCFQVLAYEPYLELCEIMNQKVPGDFAKKTLLVTTGSEAVENAVKIARAATKRSGTIAFSGAYHGRTHYTLALTGKVNPYSAGMGLMPGHVYRALYPCPLHGISEDDAIASIHRIFKNDAAPEDIAAIVIEPVQGEGGFYASSPAFMQRLRALCDEHGIMLIADEVQSGAGRTGTLFAMEQMGVAPDLTTFAKSIAGGFPLAGVTGRAEVMDAVAPGGLGGTYAGNPIACVAALEVLKVFEQENLLQKANDLGQKLKDGLLAIAEKHPEIGDVRGLGAMIAIELFEDGDHNKPDAKLTAEIVARARDKGLILLSCGPYYNVLRILVPLTIEDAQIRQGLEIISQCFDEAKQ
For B1, which Km [2] is on record?
Its Km is 7 µM.

And the Km [3]?
The Km was 98 µM.

B2: mesaconyl-CoA hydratase (Mch) (Cereibacter sphaeroides 2.4.1) (protein)
chain: MKTNAGRFFEDYRLGETIAHAVPRTVSGGERALYHALYPARHALSSSDEFARACGLPAAPVDELMAFHLVFGKTVPDISLNAVANLGYAEGRWLKPVFPGDTLRAESTVIGLKENSNGASGVVWVRTRGLNQQGEAVLSYVRWVMVRKRDTAAPAPAPTVPELAGSVAASDLVIPEGLSFTDYDLTLAGEPHRWGDYAVGEKIDHVDGVTVEESEHMLATRLWQNTAKVHFDATNRPDGRRLIYGGHVISLARTLSFNGLANAQMIVALNAGAHANPCFAGDTVRAWSEVLDKAETADPGVGALRLRLVAMKHGTEPFVTRSEDGKYLPGVLLDLDYWALVPR
Which Km (purified protein [4]) does the source give for B2 here?
The Km was 280 µM.

B3: Ccr (Methylorubrum extorquens AM1) (protein)
chain: MAASAAPAWTGQTAEAKDLYELGEIPPLGHVPAKMYAWAIRRERHGPPEQSHQLEVLPVWEIGDDEVLVYVMAAGVNYNGVWAGLGEPISPFDVHKGEYHIAGSDASGIVWKVGAKVKRWKVGDEVIVHCNQDDGDDEECNGGDPMFSPTQRIWGYETGDGSFAQFCRVQSRQLMARPKHLTWEEAACYTLTLATAYRMLFGHAPHTVRPGQNVLIWGASGGLGVFGVQLCAASGANAIAVISDESKRDYVMSLGAKGVINRKDFDCWGQLPTVNSPEYNTWLKEARKFGKAIWDITGKGNDVDIVFEHPGEATFPVSTLVAKRGGMIVFCAGTTGFNITFDARYVWMRQKRIQGSHFAHLKQASAANQFVMDRRVDPCMSEVFPWDKIPAAHTKMWKNQHPPGNMAVLVNSTRAGLRTVEDVIEAGPLKAM
B3 was tested. Which Km (purified protein [5]) did it give?
The Km was 210 µM.

What about the Km (purified protein [6]) of the same molecule?
The Km was 780 µM.

B4: β-alanyl-CoA:ammonia lyase (βCal) (Allostigmatella aurantiaca DW4/3-1) (protein)
chain: MSTKAIIRLRMSSHDAHYGGNLVDGARMLGLFGDVATELCIRHDGDEGLFRAYDSVEFLAPVYAGDFIEAEGEILSEGNTSRKMRFEARKVIRPRTDVNDSAADLLSEPVVVCRATGTCVVPKDKQRIPR
For B4, which Km (purified protein [7]) is on record?
Its Km is 70 µM.

B5: Malonyl-CoA reductase (Mcr) (Chloroflexus aurantiacus J-10-fl) (protein)
chain: MSGTGRLAGKIALITGGAGNIGSELTRRFLAEGATVIISGRNRAKLTALAERMQAEAGVPAKRIDLEVMDGSDPVAVRAGIEAIVARHGQIDILVNNAGSAGAQRRLAEIPLTEAELGPGAEETLHASIANLLGMGWHLMRIAAPHMPVGSAVINVSTIFSRAEYYGRIPYVTPKAALNALSQLAARELGARGIRVNTIFPGPIESDRIRTVFQRMDQLKGRPEGDTAHHFLNTMRLCRANDQGALERRFPSVGDVADAAVFLASAESAALSGETIEVTHGMELPACSETSLLARTDLRTIDASGRTTLICAGDQIEEVMALTGMLRTCGSEVIIGFRSAAALAQFEQAVNESRRLAGADFTPPIALPLDPRDPATIDAVFDWAGENTGGIHAAVILPATSHEPAPCVIEVDDERVLNFLADEITGTIVIASRLARYWQSQRLTPGARARGPRVIFLSNGADQNGNVYGRIQSAAIGQLIRVWRHEAELDYQRASAAGDHVLPPVWANQIVRFANRSLEGLEFACAWTAQLLHSQRHINEITLNIPANISATTGARSASVGWAESLIGLHLGKVALITGGSAGIGGQIGRLLALSGARVMLAARDRHKLEQMQAMIQSELAEVGYTDVEDRVHIAPGCDVSSEAQLADLVERTLSAFGTVDYLINNAGIAGVEEMVIDMPVEGWRHTLFANLISNYSLMRKLAPLMKKQGSGYILNVSSYFGGEKDAAIPYPNRADYAVSKAGQRAMAEVFARFLGPEIQINAIAPGPVEGDRLRGTGERPGLFARRARLILENKRLNELHAALIAAARTDERSMHELVELLLPNDVAALEQNPAAPTALRELARRFRSEGDPAASSSSALLNRSIAAKLLARLHNGGYVLPADIFANLPNPPDPFFTRAQIDREARKVRDGIMGMLYLQRMPTEFDVAMATVYYLADRNVSGETFHPSGGLRYERTPTGGELFGLPSPERLAELVGSTVYLIGEHLTEHLNLLARAYLERYGARQVVMIVETETGAETMRRLLHDHVEAGRLMTIVAGDQIEAAIDQAITRYGRPGPVVCTPFRPLPTVPLVGRKDSDWSTVLSEAEFAELCEHQLTHHFRVARKIALSDGASLALVTPETTATSTTEQFALANFIKTTLHAFTATIGVESERTAQRILINQVDLTRRARAEEPRDPHERQQELERFIEAVLLVTAPLPPEADTRYAGRIHRGRAITV
B5 was tested. Which Km (purified protein [8]) did it give?
The Km was 1.3 µM.

B6: (2S)-methylsuccinyl-CoA dehydrogenase (PmMcd) (Pseudomonas migulae) (protein)
chain: MLPITAADDVQGLLLQLRGLLEQAISALASRCTKGRQLDAELLDLMQVPTFELAWASAELLAAERSLQAIDAGTSSVDRRLILVFAVEAITLVHSRLEAIYAELDLADGTLHAIAADQKLRALRRSVLSSTALHDSARLMVERPEQIGQVAMGDELSMIEDQFRRFAADTVAPLAEHIHREDLIIPDSLLAALRDMGVFGLSIPERYGGSAPDDQEDPLTMIVVTEALSQASLAAAGSLITRPEILSRALLSGGTESQKQHWLARLAVGDPLCAIAITEPDYGSDVAGLTLRGTPCEGGWRLNGAKTWCTFAGKAGVLMVVTRTNPDKSLGHRGLSLLLAEKPSYDGHEFDFRQPGGGSLTGRAIPTIGYRGMHSFDLSFEDFFVPDGNVIGEAQGLGKGFYHTMAGMTGGRMQTAGRASGVMRAALLAGLRYATERKVFGSPLLDYPLTGAKLTKMAARYVASRYLTYSVGRMLAQGEGRMEASLVKLFACRSAELVTRESLQIHGGMGYAEEVAVSRYFVDARVLSIFEGAEETLALKVIGRSLLEAALKAEAA
B6 was tested. Which Km (purified protein [9]; ferrocenium electron acceptor) did it give?
Its Km is 78 µM.

B7: succinyl-CoA:L-malate CoA transferase (Smt) (Chloroflexus aurantiacus) (protein)
chain 1: MPPTGEEPSGHAESKPPASDPMSTPGTGQEQLPLSGIRVIDVGNFLAGPYAASILGEFGAEVLKIEHPLGGDPMRRFGTATARHDATLAWLSEARNRKSVTIDLRQQEGVALFLKLVAKSDILIENFRPGTMEEWGLSWPVLQATNPGLIMLRVSGYGQTGPYRRRSGFAHIAHAFSGLSYLAGFPGETPVLPGTAPLGDYIASLFGAIGILIALRHKEQTGRGQLIDVGIYEAVFRILDEIAPAYGLFGKIREREGAGSFIAVPHGHFRSKDGKWVAIACTTDKMFERLAEAMERPELASPELYGDQRKRLAARDIVNQITIEWVGSLTRDEVMRRCLEKEVPVGPLNSIADMFNDEHFLARGNFACIEAEGIGEVVVPNVIPRLSETPGRVTNLGPPLGNATYEVLRELLDISAEEIKRLRSRKII
chain 2: MDGTTTTLPLAGIRVIDAATVIAAPFCATLLGEFGADVLKVEHPIGGDALRRFGTPTARGDTLTWLSESRNKRSVTLNLQHPEGARVFKELIAHSDVLCENFRPGTLEKWGLGWDVLSKINPRLIMLRVTGYGQTGPYRDRPGFARIAHAVGGIAYLAGMPKGTPVTPGSTTLADYMTGLYGCIGVLLALRHREQTGRGQYIDAALYESVFRCSDELVPAYGMYRKVRERHGSHYNEFACPHGHFQTKDGKWVAISCATDKLFARLANAMGRPELASSSVYGDQKVRLAHASDVNEIVRDWCSSLTRAEVLERCYATATPAAPLNDIADFFGDRHVHARRNLVAIDAEDLGETLIMPNVVPKLSETPGSIRSLGPKLGEHTEEVLKEILGMCDEQINDLRSKRVI
With B7 as the molecule, how does the Km (purified protein [10]) read?
The Km was 910 µM.

And the Km (purified protein [9]; malate co-substrate)?
The Km was 960 µM.
